This series concerns the molecule itself. The series is described as follows: mass photometry.

B1: Cavin1 (1-190) (domain or fragment, UniProt O54724 1-190, looked up)
chain: MEDVTLHIVERPYSGFPDASSEGPEPTQGEARATEEPSGTGSDELIKSDQVNGVLVLSLLDKIIGAVDQIQLTQAQLEERQAEMEGAVQSIQGELSKLGKAHATTSNTVSKLLEKVRKVSVNVKTVRGSLERQAGQIKKLEVNEAELLRRRNFKVMIYQDEVKLPAKLSVSKSLKESEALPEKEGDELGE
B1: the “stoichiometry N” value is 3.

Source of the values: publication doi:10.1101/2021.03.23.436578 (bioRxiv, 2021).
